Measured values published in patent US11066655B2, “RNA polymerase, methods of purification and methods of use” (President and Fellows of Harvard College, priority 2013, dated 2021).

B1: Syn5 RNAP: single subunit DNA-dependent RNA polymerase from marine cyanophage Syn5, amino acid sequence SEQ ID NO:23 (protein)
chain: MSFDLIARQLQRETEAAELARKRLQDARREANERSYASSNIESRKAIATFLDPIAQRIGERLFTLRRGTGAVDAAEVYKHLKNADHHHLALITMKTALDVLGKDPEPQIQQLTTAIGRNIQLELRLTYYAEENPELYKQASRFFHAGTGTRQKATVIKLKFNREGIEWDQWSRVTCHKVGQWLMLAMADVTGWIERATDRTSGGRKTKTRICYSREFLQHRDTILAAAEQLAFCQWPMLCPPIEWSNDHNGGYLSEQIRRVNPLIRKTGPLGTRKQGDIPLAMLNNLQGQAYKVNPEVLDIANHCYESNVTVGKFIRHAPLPVPPSPGEDCTEDQLTAYKRARREAEDFNAQISQKNWRTTEVMYVARKYADEASFWMPASFDYRGRVYFLNTALNPQGTDFDKALLYFAEEGPVNEWWLSFHVATTYGLDKETMVNRVQWARDNHELIDRIASDPVRHTEWHDADEPWCFLAACLEYKACVIDGTKQTSGLPIGIDATCSGLQHLAAMTRCGRTAALVNVTPTDKPADAYKTVAQASLKHLPKEQHEWITRKVTKRPVMCTPYGVTMSSARGYIRDQLVKDGHKEDLRSPGVLNGIVKAIFNEAIPEVIPGPVQVMAWLKRSAGQIIDRGDSTITWTTPSGFEVVQDLKKSKTYEVKTRIMGGARIKLQVGDGFTDEPDRDHHKSALAPNVVHSNDASLLHLTFAFWDKPFTVIHDCVLGRSCDMDQMGSDIRLHFAEMYKADVMQDWADQVGVELPVDLIKNTLDIDSVNQSLYFFS
modifications: Amino acid sequence of a cyanophage Syn5 RNAP

System: linearized pET24-Syn5RNAP
Experiment: Long run-off RNA synthesis and incorporation of modified nucleotides (yield by A260)
Assay type: biochemical
Experimental: FIGS. 12A-12B depict synthesis of long run-off product and the incorporation of modified nucleotides by Syn5 and T7 RNA polymerase. A) On the linearized plasmid template as shown in the schematic, the production of RNA by either RNA polymerase (10 nM) was analyzed on agarose gel as lane 2. […] Lane 3 and 4 show the same RNA synthesis when CTP was replaced by 5mCTP and UTP by Ps-UTP, respectively. B) Incorporation of UTP or Ps-UTP into small RNA by 22, 67, and 200 nM Syn5 and T7 RNA polymerase as analyzed by denaturing TBE polyacrylamide gel. Full-length run-off product and the N+1 product are shown.
The plasmid pET24 harboring the Syn5 RNAP gene (pET24-S5RNAP) that contains a single Syn5 promoter in the RNAP gene and a single T7 promoter preceding the gene was used for filter binding assay as shown in FIG. 8. pET24-S5RNAP was also linearized by EcoRI treatment and recovered by gel extraction to serve as template for FIG. 12A.
For the results shown in FIG. 12A, reaction mixtures (10 μl) contained 40 mM Tris-HCl pH 8.0, 6 mM MgCl2, 2 mM spermidine, 10 mM DTT, 600 µM[…]P, GTP, CTP (or 5Me-CTP), and UTP (or Pseudo-UTP), 1.5 U/µl RNaseOUT™ recombinant ribonuclease inhibitor, 0.04 U/µl yeast inorganic pyrophosphatase, 10 nM linearized (NotI treated) pET24-Syn5RNAP, 0 or 160 mM KCl, and 10 nM Syn5 or T7 RNAP. Syn5 reaction was carried out at RT and T7 at 37° C. RNA products were then purified with RNA Clean & Concentrator™-5 kit into a final solution of 10 µl and 5 µl each was mixed with 5 µl denaturing RNA loading dye. Samples were then heated at 65° C. for 5 min and loaded onto 1.6% TAE agarose gel. RNA products were visualized by ethidium bromide staining. For FIG. 12B, reaction mixtures (10 μl) containing 40 mM Tris-HCl pH 8.0, 6 mM MgCl2, 2 mM spermidine, 10 mM DTT, 200 µM[…]P, GTP and UTP (or Pseudo-UTP), 10 µM [[…]-^32P]CTP, 1.5 U/µl RNaseOUT™ recombinant ribonuclease inhibitor, 0.5 μM DNA templates S5P-tDNAR or T7P-tDNAR, and various amount of Syn5 or T7 RNAP were incubated at RT (for Syn5 RNAP) or 37° C. (for T7 RNAP) for 30 min before adding of one unit of DNase I to each reaction mixture and an additional incubation of 15 min at 37° C. Reactions were then terminated by the addition of 4 µl of loading dye containing 95% formamide and 40 mM EDTA. Samples were then heated at 90° C. for 1 min and 4 µl sample each was loaded onto 6% TBE-Urea denaturing polyacrylamide gel. After electrophoresis, gels were dried and analyzed using a Fuji BAS 1000 Bioimaging Analyzer.

[1] = CTP and UTP present, 1500 nt run-off transcript, optimal temperature of each RNAP

Molecule	yield of RNA (160 mM KCl)	yield of RNA, based on A260 [1]	yield of RNA, based on A260 (CTP replaced by 5mCTP)	yield of RNA, based on A260 (UTP replaced by Ps-UTP)	yield relative to that in the absence of salt (160 mM KCl)
T7 RNAP: RNA polymerase encoded by bacteriophage T7, from New England Biolabs [reference compound]	completely inhibited	0.64 µg	0.75 µg	0.59 µg	–
B1	0.31 µg	0.69 µg	0.76 µg	0.63 µg	about 50%
